# Data: patent publication US20120165503A1 (Merck Sharp & Dohme, published 2012)
# Positions count from the first letter of the chain named. “And” between values parts separate entries of the source, which are not always exact repeats. Identical values can stand only once. Like-named read-outs stand apart in the source and are kept apart here. *1 amine or outer side, *2 acyl side, *3 side chain or, on linkers, in order; H or OH if unused. Bridges are numbered along the chain shown (N, C = ends). Where no end group is shown, it is not given here. Side-chain parts run from the residue outwards. [ ]: non-standard residue; d: D form. The star is where a group is joined. (mPEG)2 40 kDa = C3 = Cys(mPEG)240kDa, branched (mPEG)2, 40 kDa; Oxa12‑cholesterol = C10 = Cys(oxa12-cholesterol); γGlu = O=C(O)[C@H](CCC(=O)[*:2])N[*:1]; oxa12‑cholesterol = not defined here; Palmitoyl = CCCCCCCCCCCCCCCC(=O)*; Met(O) = CS(=O)CC[C@H](N)C(=O)O; Ac4c = NC1(C(=O)O)CCC1; Aib = CC(C)(N)C(=O)O
# B1: OXM392 (peptide)
# peptide: H[dS]QGTFTSDYSKYLDERRAKDFVQWLMNTK[γGlu][γGlu]C(oxa12‑cholesterol)-OH
# modifications: lactam 16-20; reading uncertain
# B2: OXM395 (peptide)
# peptide: H[Aib]QGTFTSDYSKYLDERRAKDFVQWLMNTK[γGlu][γGlu]C(Oxa12‑cholesterol)-OH
# modifications: lactam 16-20
# B3: OXM345 (peptide)
# peptide: HSQGTFTSDYSKYLDSRRAQDFVQWLMNTKEEC
# modifications: D-Ser at position 2; gamma-glutamic acid at positions 31 and 32; C4 = Cys(cholesterol) at position 33; C-terminal COOH
# B4: OXM380 (peptide)
# peptide: B3 peptide
# modifications: D-Ser at position 2; gamma-glutamic acid at positions 31 and 32; C7 = Cys(Oxa4-cholesterol) at position 33; C-terminal COOH
# B5: OXM399 (peptide)
# peptide: B3 peptide
# modifications: D-Ser at position 2; gamma-glutamic acid at positions 31 and 32; C10 = Cys(oxa12-cholesterol) at position 33; C-terminal COOH
# B6: OXM381 (peptide)
# peptide: B3 peptide
# modifications: D-Ser at position 2; gamma-glutamic acid at positions 31 and 32; C9 = Cys(mal-oxa12-cholesterol) at position 33; C-terminal COOH
# B7: OXM401 (peptide)
# peptide: B3 peptide with S2X
# modifications: Acb (1-amino-1-cyclobutane carboxylic acid) at position 2; gamma-glutamic acid at positions 31 and 32; C10 = Cys(oxa12-cholesterol) at position 33; C-terminal COOH
# B8: OXM400 (peptide)
# peptide: B3 peptide with S2X
# modifications: Aib at position 2; gamma-glutamic acid at positions 31 and 32; C10 = Cys(oxa12-cholesterol) at position 33; C-terminal COOH
# B9: OXM411 (peptide)
# peptide: H[dS]QGTFTSDK([γGlu-γGlu-Palmitoyl])SKYLDERRAQDFVQWLMNTK-NH2
# modifications: N-terminus assumed
# SMILES: CCCCCCCCCCCCCCCC(=O)N[C@@H](CCC(=O)N[C@@H](CCC(=O)NCCCC[C@H](NC(=O)[C@H](CC(=O)O)NC(=O)[C@H](CO)NC(=O)[C@@H](NC(=O)[C@H](Cc1ccccc1)NC(=O)[C@@H](NC(=O)CNC(=O)[C@H](CCC(N)=O)NC(=O)[C@@H](CO)NC(=O)[C@@H](N)Cc1c[nH]cn1)[C@@H](C)O)[C@@H](C)O)C(=O)N[C@@H](CO)C(=O)N[C@@H](CCCCN)C(=O)N[C@@H](Cc1ccc(O)cc1)C(=O)N[C@@H](CC(C)C)C(=O)N[C@@H](CC(=O)O)C(=O)N[C@@H](CCC(=O)O)C(=O)N[C@@H](CCCNC(=N)N)C(=O)N[C@@H](CCCNC(=N)N)C(=O)N[C@@H](C)C(=O)N[C@@H](CCC(N)=O)C(=O)N[C@@H](CC(=O)O)C(=O)N[C@@H](Cc1ccccc1)C(=O)N[C@H](C(=O)N[C@@H](CCC(N)=O)C(=O)N[C@@H](Cc1c[nH]c2ccccc12)C(=O)N[C@@H](CC(C)C)C(=O)N[C@@H](CCSC)C(=O)N[C@@H](CC(N)=O)C(=O)N[C@H](C(=O)N[C@@H](CCCCN)C(N)=O)[C@@H](C)O)C(C)C)C(=O)O)C(=O)O
# B10: OXM33 (peptide)
# peptide: HSQGTFTSDYSKYLDSRRAQDFVQWLMNTKRNRNNIAC
# modifications: D-Ser at position 2; C1 = Cys(mPEG)5kDa at position 38; C-terminal amide
# B11: OXM100 (peptide)
# peptide: B10 peptide with S2X
# modifications: Aib at position 2; methionine sulfoxide at position 27; C6 = Cys(mPEG)260kDa (60 kDa) at position 38; C-terminal amide
# B12: OXM34 (peptide)
# peptide: B10 peptide
# modifications: D-Ser at position 2; C2 = Cys(mPEG)20kDa at position 38; C-terminal amide
# B13: OXM36 (peptide)
# peptide: B10 peptide
# modifications: not fully specified; D-Ser at position 2; C4 = Cys(cholest-5-en-3-yl{[(2R)-3-amino-2-(amino)-3-oxopropyl]thio}acetate) at position 38; C-terminal amide
# B14: OXM67 (peptide)
# peptide: B10 peptide with S2X
# modifications: α-aminoisobutyric acid (Aib) at position 2; C1 = Cys(mPEG)5kDa at position 38; C-terminal amide
# B15: OXM99 (peptide)
# peptide: B10 peptide with S2X
# modifications: not fully specified; Aib at position 2; methionine sulfoxide at position 27; C3 = Cys(mPEG)240kDa (40 kDa) at position 38; C-terminal amide
# B16: OXM68 (peptide)
# peptide: B10 peptide with S2X
# modifications: Aib at position 2; C2 = Cys(mPEG)20kDa at position 38; C-terminal amide
# B17: OXM110 (peptide)
# peptide: B10 peptide with C38K
# modifications: D-Ser at position 2; K(palmitoyl) at position 38; C-terminal amide
# B18: OXM69 (peptide)
# peptide: B10 peptide with S2X
# modifications: Aib at position 2; C3 = Cys(mPEG)240kDa (branched (mPEG)2, 40 kDa) at position 38; C-terminal amide
# B19: OXM35 (peptide)
# peptide: B10 peptide
# modifications: D-Ser at position 2; C3 = Cys(mPEG)240kDa (branched (mPEG)2, 40 kDa) at position 38; C-terminal amide
# B20: OXM416 (peptide)
# peptide: H[Aib]QGTFTSDK([γGlu-γGlu-Palmitoyl])SKYLDERRAQDFVQWLMNTK-NH2
# modifications: N-terminus assumed
# SMILES: CCCCCCCCCCCCCCCC(=O)N[C@@H](CCC(=O)N[C@@H](CCC(=O)NCCCC[C@H](NC(=O)[C@H](CC(=O)O)NC(=O)[C@H](CO)NC(=O)[C@@H](NC(=O)[C@H](Cc1ccccc1)NC(=O)[C@@H](NC(=O)CNC(=O)[C@H](CCC(N)=O)NC(=O)C(C)(C)NC(=O)[C@@H](N)Cc1c[nH]cn1)[C@@H](C)O)[C@@H](C)O)C(=O)N[C@@H](CO)C(=O)N[C@@H](CCCCN)C(=O)N[C@@H](Cc1ccc(O)cc1)C(=O)N[C@@H](CC(C)C)C(=O)N[C@@H](CC(=O)O)C(=O)N[C@@H](CCC(=O)O)C(=O)N[C@@H](CCCNC(=N)N)C(=O)N[C@@H](CCCNC(=N)N)C(=O)N[C@@H](C)C(=O)N[C@@H](CCC(N)=O)C(=O)N[C@@H](CC(=O)O)C(=O)N[C@@H](Cc1ccccc1)C(=O)N[C@H](C(=O)N[C@@H](CCC(N)=O)C(=O)N[C@@H](Cc1c[nH]c2ccccc12)C(=O)N[C@@H](CC(C)C)C(=O)N[C@@H](CCSC)C(=O)N[C@@H](CC(N)=O)C(=O)N[C@H](C(=O)N[C@@H](CCCCN)C(N)=O)[C@@H](C)O)C(C)C)C(=O)O)C(=O)O
# B21: OXM121 (peptide)
# peptide: H[Aib]QGTFTSDYC((mPEG)2 40 kDa)KYLDSRRAQDFVQWL[Met(O)]NTKRNRNNIA-NH2
# B22: OXM124 (peptide)
# peptide: H[Aib]QGTFTSDYSC((mPEG)2 40 kDa)YLDSRRAQDFVQWL[Met(O)]NTKRNRNNIA-NH2
# B23: OXM417 (peptide)
# peptide: H[Ac4c]QGTFTSDK([γGlu-γGlu-Palmitoyl])SKYLDERRAQDFVQWLMNTK-NH2
# modifications: N-terminus assumed
# SMILES: CCCCCCCCCCCCCCCC(=O)N[C@@H](CCC(=O)N[C@@H](CCC(=O)NCCCC[C@H](NC(=O)[C@H](CC(=O)O)NC(=O)[C@H](CO)NC(=O)[C@@H](NC(=O)[C@H](Cc1ccccc1)NC(=O)[C@@H](NC(=O)CNC(=O)[C@H](CCC(N)=O)NC(=O)C1(NC(=O)[C@@H](N)Cc2c[nH]cn2)CCC1)[C@@H](C)O)[C@@H](C)O)C(=O)N[C@@H](CO)C(=O)N[C@@H](CCCCN)C(=O)N[C@@H](Cc1ccc(O)cc1)C(=O)N[C@@H](CC(C)C)C(=O)N[C@@H](CC(=O)O)C(=O)N[C@@H](CCC(=O)O)C(=O)N[C@@H](CCCNC(=N)N)C(=O)N[C@@H](CCCNC(=N)N)C(=O)N[C@@H](C)C(=O)N[C@@H](CCC(N)=O)C(=O)N[C@@H](CC(=O)O)C(=O)N[C@@H](Cc1ccccc1)C(=O)N[C@H](C(=O)N[C@@H](CCC(N)=O)C(=O)N[C@@H](Cc1c[nH]c2ccccc12)C(=O)N[C@@H](CC(C)C)C(=O)N[C@@H](CCSC)C(=O)N[C@@H](CC(N)=O)C(=O)N[C@H](C(=O)N[C@@H](CCCCN)C(N)=O)[C@@H](C)O)C(C)C)C(=O)O)C(=O)O
# B24: OXM409 (peptide)
# peptide: HSQGTFTSDKSKYLDSRRAQDFVQWLMNTK
# modifications: D-Ser at position 2; Lys(γE-γE-palmitoyl) at position 10; C-terminal amide
# Key:
# Assay in all cases: cell-based or functional assay
# [1] = target: T1, human glucagon receptor (human, UniProt P47871 26-477)
# [2] = target: T2, human GLP-1 receptor (human, UniProt P43220 24-463)
# [3] = target: T1, human glucagon receptor; remark: listed apart in the source
# [4] = target: T2, human GLP-1 receptor; remark: listed apart in the source
# [5] = target: T1, human glucagon receptor; remark: listed apart in the source
# T1 sequence (P47871 26-477): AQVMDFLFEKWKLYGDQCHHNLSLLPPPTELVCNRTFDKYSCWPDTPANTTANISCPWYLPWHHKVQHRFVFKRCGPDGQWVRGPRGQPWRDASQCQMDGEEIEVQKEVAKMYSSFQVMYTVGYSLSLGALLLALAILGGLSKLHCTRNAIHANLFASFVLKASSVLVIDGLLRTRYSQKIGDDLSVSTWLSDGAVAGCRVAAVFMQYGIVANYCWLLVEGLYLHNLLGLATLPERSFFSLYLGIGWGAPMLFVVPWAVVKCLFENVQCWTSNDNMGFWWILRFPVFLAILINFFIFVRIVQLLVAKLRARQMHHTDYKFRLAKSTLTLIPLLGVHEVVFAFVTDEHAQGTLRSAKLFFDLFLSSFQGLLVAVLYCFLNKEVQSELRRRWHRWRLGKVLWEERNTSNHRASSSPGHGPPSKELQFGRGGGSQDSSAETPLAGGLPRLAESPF
Binder,hGCGR + 20% plasma EC50 [1],hGLP-1R + 20% Plasma EC50 [2] [nM],% Activation of GCGR [3] [%],GCGR EC50 [3] [nM],GLP-1R EC50 [4] [nM],other results
B1,0.3 nM,3,,,,hGCGR EC50 [1]: 0.03 nM; hGLP-1R EC50 [2]: 0.03 nM
B2,119 nM,3.3,,,,hGCGR EC50 [1]: 10 nM; hGLP-1R EC50 [2]: 0.7 nM
B3,> 1000 nM,> 1000,,,,hGCGR EC50 [1]: 0.1 nM; hGLP-1R EC50 [2]: 5.1 nM
B4,3.4 nM,30.7,,,,hGCGR EC50 [1]: 0.1 nM; hGLP-1R EC50 [2]: 0.3 nM
B5,0.4 nM,5.7,,,,hGCGR EC50 [1]: 0.01 nM; hGLP-1R EC50 [2]: 0.05 nM
B6,0.8 nM and 0.9 nM,1.9,,,,
B7,0.3 nM,2.9,,,,hGCGR EC50 [1]: 0.09 nM; hGLP-1R EC50 [2]: 0.23 nM
B8,0.8 nM,1.9,,,,hGCGR EC50 [1]: 0.01 nM; hGLP-1R EC50 [2]: 0.07 nM
B9,0.2 nM,0.1,,,,
B10,,,78,75.3,115,
B11,,,22,> 1000,22.5,
B12,,,61,616,195,
B13,,,,,,GCGR EC50 [5]: 12.1 nM
B14,,,73,138,5.8,
B15,,,66,> 1000,7.4,
B16,,,58,601,8.3,
B17,,,,,,GCGR + 10% plasma [5]: 6.9 nM; GCGR EC50 [5]: 0.31 nM
B18,,,46,> 1000,6,
B19,,,71,142,716,
B20,1.4 nM,0.09,,,,
B21,,,,,> 125,
B22,,,,,> 100,
B23,0.4 nM,0.15,,,,
B24,0.1 nM,0.7,,,,
